# Measurements taken from US20240301429A1 (RSEM LIMITED PARTNERSHIP, published 2024).
# T1: SEMA3A-FC (R&D systems) (Homo sapiens (Human), UniProt Q14563 22-771)
# T1 construct: Bought reagent; not shown: Fc portion of the bought fusion, detected with anti-human IgG
# T1 sequence: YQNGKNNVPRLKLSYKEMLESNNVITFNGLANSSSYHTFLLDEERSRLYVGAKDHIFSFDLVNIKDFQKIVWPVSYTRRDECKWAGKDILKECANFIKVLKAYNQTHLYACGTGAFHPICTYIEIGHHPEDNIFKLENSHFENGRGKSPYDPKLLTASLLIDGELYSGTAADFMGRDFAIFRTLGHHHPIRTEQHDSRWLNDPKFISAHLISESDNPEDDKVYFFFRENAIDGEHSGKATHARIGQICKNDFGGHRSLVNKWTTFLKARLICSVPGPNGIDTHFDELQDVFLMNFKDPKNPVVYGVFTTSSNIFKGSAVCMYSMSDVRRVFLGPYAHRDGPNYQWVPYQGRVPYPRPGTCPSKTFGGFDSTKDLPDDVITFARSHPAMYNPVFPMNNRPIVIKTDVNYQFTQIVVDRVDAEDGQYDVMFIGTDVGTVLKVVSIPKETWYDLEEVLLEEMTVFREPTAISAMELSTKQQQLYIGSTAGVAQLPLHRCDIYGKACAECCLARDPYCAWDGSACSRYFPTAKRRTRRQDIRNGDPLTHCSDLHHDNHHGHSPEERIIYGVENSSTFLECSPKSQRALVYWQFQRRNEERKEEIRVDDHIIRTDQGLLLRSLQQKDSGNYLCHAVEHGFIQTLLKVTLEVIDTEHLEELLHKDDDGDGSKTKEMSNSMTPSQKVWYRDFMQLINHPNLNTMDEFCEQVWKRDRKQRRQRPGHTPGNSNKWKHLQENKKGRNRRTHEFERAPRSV
# Target: T1, SEMA3A-FC (R&D systems)
# Assay: saturation binding, trap coated on plate, SEMA3A-FC titrated, anti-human IgG-HRP chemiluminescence
# Protocol: Sema 3A and AP-VEGF₁₆₅ binding assays. Saturation curves for the determinations of KD of binding to SEMA 3A or VEGF165 were obtained as follow. Wells of high protein binding 96 well plates (Maxisorp, Nunc) were coated with purified traps diluted in PBS and blocked afterward with binding buffer (PBS containing 2% casein and 0.05% Tween 20). The SEMA3A-FC (R&D systems) or AP-VEGF165 ligands were diluted in binding buffer over an extensive range of concentrations and added to wells. Following an overnight incubation, wells were washed with PBS containing 0.05% tween. Bound SEMA3a-FC was detected using an HRP-linked anti-Human IgG (Biorad) and ECL substrate (Pierce). Alternatively, bound AP-VEGF165 was detected using CPD star substrate (Roche). The Chemiluminescent signal was acquired on a TECAN reader. Dissociation constant (KD) were determined by non-linear curve fitting using the Graph Pad prism software.
Kd,binding result,Binder
0.95 nM,–,"NRP1 trap M (receptor, a1a2-b1; Signal peptide not trimmed) FRNDKCGDTIKIESPGYLTSPGYPHSYHPSEKCEWLIQAPDPYQRIMINFNPHFDLEDRDCKYDYVEVFDGENENGHFRGKFCGKIAPPPVVSSGPFLFIKFVSDYETHGAGFSIRYELFKRGPECSQNYTTPSGVIKSPGFPEKYPNSLECTYIVFAPKMSEIILEFESFDLEPDSNPPGGMFCRYDRLEIWDGFPDVGPHIGRYCGQKTPGRIRSSSGILSMVFYTDSAIAKEGFSANYSVLQSSVSEDFKCMEALGMESGEIHSDQITASSQYSTNWSAERSRLNYPENGWTPGEDSYREWIQVDLGLLRFVTAVGTQGAISKETKKKYYVKTYKIDVSSNGEDWITIKEGNKPVLFQGNTNPTDVVVAVFPKPLITRFVRIKPATWETGISMRFEVYGCRSGSKENLYFQG"
–,no binding,"NRP1 trap P (receptor, a1a2-b1 with Y297A (held in the entry); Signal peptide not trimmed) FRNDKCGDTIKIESPGYLTSPGYPHSYHPSEKCEWLIQAPDPYQRIMINFNPHFDLEDRDCKYDYVEVFDGENENGHFRGKFCGKIAPPPVVSSGPFLFIKFVSDYETHGAGFSIRYELFKRGPECSQNYTTPSGVIKSPGFPEKYPNSLECTYIVFAPKMSEIILEFESFDLEPDSNPPGGMFCRYDRLEIWDGFPDVGPHIGRYCGQKTPGRIRSSSGILSMVFYTDSAIAKEGFSANYSVLQSSVSEDFKCMEALGMESGEIHSDQITASSQASTNWSAERSRLNYPENGWTPGEDSYREWIQVDLGLLRFVTAVGTQGAISKETKKKYYVKTYKIDVSSNGEDWITIKEGNKPVLFQGNTNPTDVVVAVFPKPLITRFVRIKPATWETGISMRFEVYGCRSGSKENLYFQG"
–,no binding,"NRP1 trap AD (receptor, Signal peptide not trimmed) FRNDKCGDTIKIESPGYLTSPGYPHSYHPSEKCEWLIQAPDPYQRIMINFNPHFDLEDRDCKYDYVEVFDGENENGHFRGKFCGKIAPPPVVSSGPFLFIKFVSDYETHGAGFSIRYELFKRGPECSQNYTTPSGVIKSPGFPEKYPNSLECTYIVFAPKMSEIILEFESFDLEPDSNPPGGMFCRYDRLEIWDGFPDVGPHIGRYCGQKTPGRIRSSSGILSMVFYTDSAIAKEGFSANYSVLQSSVSEDFKCMEALGMESGEIHSDQITASSQYSTNWSAERSRLNYPENGWTPGEKSYREWIQVDLGLLRFVTAVGTQGAISKETKKKYYVKTYKIDVSSNGEDWITIKEGNKPVLFQGNTNPTDVVVAVFPKPLITRFVRIKPATWETGISMRFEVYGCRSGSKENLYFQG"
4.4 nM,–,"NRP1 trap AK (receptor, a2b1b2; Signal peptide not trimmed) FRNDKRGPECSQNYTTPSGVIKSPGFPEKYPNSLECTYIVFAPKMSEIILEFESFDLEPDSNPPGGMFCRYDRLEIWDGFPDVGPHIGRYCGQKTPGRIRSSSGILSMVFYTDSAIAKEGFSANYSVLQSSVSEDFKCMEALGMESGEIHSDQITASSQYSTNWSAERSRLNYPENGWTPGEDSYREWIQVDLGLLRFVTAVGTQGAISKETKKKYYVKTYKIDVSSNGEDWITIKEGNKPVLFQGNTNPTDVVVAVFPKPLITRFVRIKPATWETGISMRFEVYGCKITDYPCSGMLGMVSGLISDSQITSSNQGDRNWMPENIRLVTSRSGWALPPAPHSYINEWLQIDLGEEKIVRGIIIQGGKHRENKVFMRKFKIGYSNNGSDWKMIMDDSKRKAKSFEGNNNYDTPELRTFPALSTRFIRIYPERATHGGLGLRMELLGCRSGSKENLYFQG"
4.44 nM,–,"NRP1 trap Z (receptor, a1a2-b1b2-c with E319K, D320K (held in the entry); Signal peptide not trimmed) FRNDKCGDTIKIESPGYLTSPGYPHSYHPSEKCEWLIQAPDPYQRIMINFNPHFDLEDRDCKYDYVEVFDGENENGHFRGKFCGKIAPPPVVSSGPFLFIKFVSDYETHGAGFSIRYELFKRGPECSQNYTTPSGVIKSPGFPEKYPNSLECTYIVFAPKMSEIILEFESFDLEPDSNPPGGMFCRYDRLEIWDGFPDVGPHIGRYCGQKTPGRIRSSSGILSMVFYTDSAIAKEGFSANYSVLQSSVSEDFKCMEALGMESGEIHSDQITASSQYSTNWSAERSRLNYPENGWTPGKKSYREWIQVDLGLLRFVTAVGTQGAISKETKKKYYVKTYKIDVSSNGEDWITIKEGNKPVLFQGNTNPTDVVVAVFPKPLITRFVRIKPATWETGISMRFEVYGCKITDYPCSGMLGMVSGLISDSQITSSNQGDRNWMPENIRLVTSRSGWALPPAPHSYINEWLQIDLGEEKIVRGIIIQGGKHRENKVFMRKFKIGYSNNGSDWKMIMDDSKRKAKSFEGNNNYDTPELRTFPALSTRFIRIYPERATHGGLGLRMELLGCEVEAPTAGPTTPNGNLVDECDDDQANCHSGTGDDFQLTGGTTVLATEKPTVIDSTIQSEFPTYGFNCEFGWGSHKTFCHWEHDNHVQLKWSVLTSKTGPIQDHTGDGNFIYSQADENQKGKVARLVSPVVYSQNSAHCMTFWYHMSGSHVGTLRVKLRYQKPEEYDQLVWMAIGHQGDHWKEGRVLLHKSLKLYQVIFEGEIGKGNLGGIAVDDISINNHISQEDCAKPADLDKKNPEIKIDETGSTPGYEGEGEGDKNISRKPGNVLKTLDPRSGSKENLYFQG"
–,no binding,"NRP1 trap AE (receptor, Signal peptide not trimmed) FRNDKCGDTIKIESPGYLTSPGYPHSYHPSEKCEWLIQAPDPYQRIMINFNPHFDLEDRDCKYDYVEVFDGENENGHFRGKFCGKIAPPPVVSSGPFLFIKFVSDYETHGAGFSIRYELFKRGPECSQNYTTPSGVIKSPGFPEKYPNSLECTYIVFAPKMSEIILEFESFDLEPDSNPPGGMFCRYDRLEIWDGFPDVGPHIGRYCGQKTPGRIRSSSGILSMVFYTDSAIAKEGFSANYSVLQSSVSEDFKCMEALGMESGEIHSDQITASSQYSTNWSAERSRLNYPENGWTPGEKSYREWIQVDLGLLRFVTAVGTQGAISKETKKKYYVKTYKIDVSSNGEDWITIKEGNKPVLFQGNTNPTDVVVAVFPKPLITRFVRIKPATWETGISMRFEVYGCKITDYPCSGMLGMVSGLISDSQITSSNQGDRNWMPENIRLVTSRSGWALPPAPHSYINEWLQIDLGEEKIVRGIIIQGGKHRENKVFMRKFKIGYSNNGSDWKMIMDDSKRKAKSFEGNNNYDTPELRTFPALSTRFIRIYPERATHGGLGLRMELLGCRSGSKENLYFQG"
–,no binding,"NRP1 trap Q (receptor, a1a2-b1b2 with Y297A (held in the entry); Signal peptide not trimmed) FRNDKCGDTIKIESPGYLTSPGYPHSYHPSEKCEWLIQAPDPYQRIMINFNPHFDLEDRDCKYDYVEVFDGENENGHFRGKFCGKIAPPPVVSSGPFLFIKFVSDYETHGAGFSIRYELFKRGPECSQNYTTPSGVIKSPGFPEKYPNSLECTYIVFAPKMSEIILEFESFDLEPDSNPPGGMFCRYDRLEIWDGFPDVGPHIGRYCGQKTPGRIRSSSGILSMVFYTDSAIAKEGFSANYSVLQSSVSEDFKCMEALGMESGEIHSDQITASSQASTNWSAERSRLNYPENGWTPGEDSYREWIQVDLGLLRFVTAVGTQGAISKETKKKYYVKTYKIDVSSNGEDWITIKEGNKPVLFQGNTNPTDVVVAVFPKPLITRFVRIKPATWETGISMRFEVYGCKITDYPCSGMLGMVSGLISDSQITSSNQGDRNWMPENIRLVTSRSGWALPPAPHSYINEWLQIDLGEEKIVRGIIIQGGKHRENKVFMRKFKIGYSNNGSDWKMIMDDSKRKAKSFEGNNNYDTPELRTFPALSTRFIRIYPERATHGGLGLRMELLGCRSGSKENLYFQG"
2.4 nM,–,"NRP1 trap AJ (receptor, a2b1b2c; Signal peptide not trimmed) FRNDKRGPECSQNYTTPSGVIKSPGFPEKYPNSLECTYIVFAPKMSEIILEFESFDLEPDSNPPGGMFCRYDRLEIWDGFPDVGPHIGRYCGQKTPGRIRSSSGILSMVFYTDSAIAKEGFSANYSVLQSSVSEDFKCMEALGMESGEIHSDQITASSQYSTNWSAERSRLNYPENGWTPGEDSYREWIQVDLGLLRFVTAVGTQGAISKETKKKYYVKTYKIDVSSNGEDWITIKEGNKPVLFQGNTNPTDVVVAVFPKPLITRFVRIKPATWETGISMRFEVYGCKITDYPCSGMLGMVSGLISDSQITSSNQGDRNWMPENIRLVTSRSGWALPPAPHSYINEWLQIDLGEEKIVRGIIIQGGKHRENKVFMRKFKIGYSNNGSDWKMIMDDSKRKAKSFEGNNNYDTPELRTFPALSTRFIRIYPERATHGGLGLRMELLGCEVEAPTAGPTTPNGNLVDECDDDQANCHSGTGDDFQLTGGTTVLATEKPTVIDSTIQSEFPTYGFNCEFGWGSHKTFCHWEHDNHVQLKWSVLTSKTGPIQDHTGDGNFIYSQADENQKGKVARLVSPVVYSQNSAHCMTFWYHMSGSHVGTLRVKLRYQKPEEYDQLVWMAIGHQGDHWKEGRVLLHKSLKLYQVIFEGEIGKGNLGGIAVDDISINNHISQEDCAKPADLDKKNPEIKIDETGSTPGYEGEGEGDKNISRKPGNVLKTLDPRSGSKENLYFQG"
